From US7329737 (DYAX, dated 2008) come the findings set out here.

The labels stand for the following.
B1: M0114-F04 (Fab, V domains shown)
VH: EVQLLESGGGLVQPGGSLRLSCAASGFTFSHYYMAWVRQAPGKGLEWVSYISPSGGSTKYADSVKGRFTISRDNSKNTLYLQMNSLRAEDTAMYYCARGGGTGTFDIWGQGTMVTVSS
VL: AQSELTQPASVSGSPGQSIAISCTGTSSDIGAYPFVSWYQQHPGKAPKLLIYGVTTRPFGVSDRFSGSKSGSTASLTISGLQAEDEADYYCSSYAGGRNLPYVFGTGTTVTVLG
B2: M0096-D03 (Fab, V domains shown)
VH: EVQLLESGGGLVQPGGSLRLSCAASGFTFSHYWMVWVRQAPGKGLEWVSWIGPSGGGTVYADSVKGRFTISRDNSKNTLYLQMNSLRAEDTAVYYCARGNGGFDSWGRGTLVTVSS
VL: AQSELTQPRSVSGSPGQSVTISCTGTTRDVGAYKYVSWYQQYPGKAPKLMLSDVSKRPSGVPDRFSGSKSGNTASLTISGLQSEDEADYYCCSFAGSYTWIFGGGTKVTVLG
B3: M0132-C01 (Fab, V domains shown)
VH: EVQLLESGGGLVQPGGSLRLSCAASGFTFSRYLMWWVRQAPGKGLEWVSVIGPSGGWTRYADSVKGRFTISRDNSKNTLYLQMNSLRAEDTAVYYCARHPGDYWGQGTLVTVSS
VL: AQSALTQPRSVSGSPGQSVTISCTGTGSNIDGYNYVSWYQQYPGNAPKLIIYDVGKRPSGVPNRFSGSKSGNTASLTISGLQAEDEADYYCCSYAGSYSYVFGVGTKVTVLG
B4: M0094-D08 (Fab, V domains shown)
VH: EVQLLESGGGLVQPGGSLRLSCAASGFTFSHYLMVWVRQAPGKGLEWVSGIVPSGGYTMYADSVKGRFTISRDNSKNTLYLQMNSLRAEDTAVYYCTRASYSSFGLDYWGQGTLVTVSS
VL: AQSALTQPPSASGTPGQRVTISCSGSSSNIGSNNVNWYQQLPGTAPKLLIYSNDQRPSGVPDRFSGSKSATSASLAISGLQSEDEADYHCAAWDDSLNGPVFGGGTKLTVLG
B5: M0122-A05 (Fab, V domains shown)
VH: EVQLLESGGGLVQPGGSLRLSCAASGFTFSHYPMHWVRQAPGKGLEWVSSIWPSGGHTSYADSVKGRFTISRDNSKNTLYLQMNSLRAEDTATYYCARLSQPIWGQGTLVTVSS
VL: DIQMTQSPSSFSASTGDRVTITCRASQSISRWLAWYQQKPGKAPKLLIYEASTLESGVPSTFSGSGSGTEFTLTISSLQPDDFATYYCQQYNSYPLTFGGGTKVEIKR
B6: M0123-E02 (Fab, V domains shown)
VH: EVQLLESGGGLVQPGGSLRLSCAASGFTFSHYRMDWVRQAPGKGLEWVSGIYPSGGHTNYADSVKGRFTISRDNSKNTLYLQMNSLRAEDTAVYYCARDRGWYGADYWGQGTLVTVSS
VL: AQSALTQPASVSGSPGQSITISCSGTSSDVGAYYHVSWYQQHPGKAPKLMIYDVSNRPSGVSNRFSGSKSGNTASLTISGLQAEDEADYYCSLYIGTSTPWVFGGGTKLTVLG
B7: M0118-E07 (Fab, V domains shown)
VH: EVQLLESGGGLVQPGGSLRLSCAASGFTFSHYPMDWVRQAPGKGLEWVSRIYPSGGATKYADSVKGRFTISRDNSKNTLYLQMNSLRAEDTATYYCARGGGAFDIWGQGTMVTVSS
VL: DIQMTQSPSSLSASVGDRVTITCRASQGISNYLAWYQQKPGKVPKLLIYAASTLQSGVPSRFSGSGSGTDFTLTISSLQPEDVATYYCQKYNSAPLTFGGGTKVEIKR
B8: M0114-E02 (Fab, V domains shown)
VH: EVQLLESGGGLVQPGGSLRLSCAASGFTFSHYKMMWVRQAPGKGLEWVSYIYPSGGWTGYADSVKGRFTISRDNSKNTLYLQMNSLRAEDTAVYYCARVGPWDAFDIWGQGTMVTVSS
VL: DIQMTQSPATLSLSPGERATLSCRASQSVGGYLAWYQQKPGQAPRLLIYDASKRATGIPARFSGSGSGTDFTLTISSLEPEDFAVYYCQQRSKWPPYTFGQGTKLEIKR
B9: M0131-G06 (Fab, V domains shown)
VH: EVQLLESGGGLVQPGGSLRLSCAASGFTFSSYAMTWVRQAPGKGLEWVSSISSSGGDTAYADSVKGRFTISRDNSKNTLYLQMNSLRAEDTAVYYCATERHYIWGSYRYSWFDPWGQGTLVTVSS
VL: AQYELTQAPSASGTPGQRVTISCSGSRSNIGTNPVNWYQHVPGTAPKLLILVNNQRPSGVPDRFSGSKSGASASLAISGLQSEDEAEYYCATWDGSLNGPVFGGGTKLTVLR
B10: M0113-E03 (Fab, V domains shown)
VH: EVQLLESGGGLVQPGGSLRLSCAASGFTFSRYTMFWVRQAPGKGLEWVSGIYPSGGKTIYADSVKGRFTISRDNSKNTLYLQMNSLRAEDTAVYYCATGGVFGVVDYWGQGTLVTVSS
VL: DIQMTQSPSSLSASVGDRVTITCRASQSINSYLNWYQQKPGKAPNLLIYAASSLQNGVPSRFSGSGSGTDFTLTISSLQPEDFAAYYCQQSYSTPLTFGGGTKVEIKR
B11: M0093-G09 (Fab, V domains shown)
VH: EVQLLESGGGLVQPGGSLRLSCAASGFTFSWYSMTWVRQAPGKGLEWVSSISPSGGATKYADSVKGRFTISRDNSKNTLYLQMNSLRAEDTAVYYCARGGAASLPFDYWGQGTLVTVSS
VL: DIQMTQSPSSLSASVGDRVTITCRASQSISSFLNWYQQKPGKAPKLLLMYAASSLQSGVPSRFSGSGSGTDFTLTISSLQPEDFATYYCQQSYSTPYTFGQGTKLEIKR
B12: M0102-G11 (Fab, V domains shown)
VH: EVQLLESGGGLVQPGGSLRLSCAASGFTFSRYMMEWVRQAPGKGLEWVSGISPSGGTTKYADSVKGRFTISRDNSKNTLYLQMNSLRAEDTAVYYCTRGGYNNYYYALDVWGQGTTVTVSS
VL: DIQMTQSPDTLSLSPGERATLSCRASESVSSSYFAWYQQKRGQAPRLLIYGASRRVTGIPDRFSGSGSGTDFTLTITRLEPEDFAVYYCQQYGGSPRSFGQGTKVEIKR
B13: M0102-H02 (Fab, V domains shown)
VH: EVQLLESGGGLVQPGGSLRLSCAASGFTFSMYRMFWVRQAPGKGLEWVSVIGPSGGQTAYADSVKGRFTISRDNSKNTLYLQMNSLRAEDTAVYYCARVGVWYGMDVWGQGTTVTVSS
VL: DIQMTQSPATLSLSPGERAALSCRASQSVSNFLAWYQQKPGQAPRLLIYGASNRATDIPARFSGSGSGTDFTLTISSLEPEDFATYYCQQANSFPLTFGGGTKVEIKR
B14: M0092-G06 (Fab, V domains shown)
VH: B13 VH with M31H, R33G, F35N, V50S, G52W, P53S, Q57Y, A59T, V101I, G104S
VL: AQSELTQPRSVSGSPGQSVTISCTGTSGEVANYNYVSWYHQDPGLVPKLKIYDVSRRPSGVPDRFSGAKSGDTASLTISGLQAEDEGDYYCASYVGNDKLVFGGGTKLTVLG

Residue numbers refer to the chain shown, from its start.

The experiment concerns the target T1, hK1 (human tissue kallikrein 1), recombinant (human, UniProt P06870 25-262).
T1 construct: Expressed in P. pastoris from KLK1 cDNA and purified; enzymatically active; also called KLK1; Recombinant (Pichia) Kallikrein
Put plainly: SPR. Background: Surface plasmon resonance follows binding to a sensor surface in real time, without labels.
For B1, the Kd (usually a measure of binding affinity in units of concentration) turned out to be 30.7 nM; the koff (in general, a measure of how fast the partners let go of each other) worked out at 0.0107 s⁻¹; the kon (as a rule, the second-order rate constant of association) was determined as 348000 M⁻¹ s⁻¹.
The corresponding values for B2 are 28.1 nM, 0.00945 s⁻¹ and 337000 M⁻¹ s⁻¹.
The matching figures for B3: 25.6 nM, 0.0035 s⁻¹ and 137000 M⁻¹ s⁻¹.
The corresponding values for B4 are 29.8 nM, 0.00707 s⁻¹ and 237000 M⁻¹ s⁻¹.
For B5, the Kd was found to be 30.8 nM, the koff was 0.00453 s⁻¹ and the kon was 147000 M⁻¹ s⁻¹.
In the case of B6, the Kd is 26.8 nM, the koff was 0.00613 s⁻¹ and the kon stood at 229000 M⁻¹ s⁻¹.
The matching figures for B7: 31.8 nM, 0.0871 s⁻¹ and 2.74e+06 M⁻¹ s⁻¹.
The matching figures for B8: 23.2 nM, 0.00936 s⁻¹ and 403000 M⁻¹ s⁻¹.
The matching figures for B9: 29.7 nM, 0.00209 s⁻¹ and 70300 M⁻¹ s⁻¹.
B10: the Kd amounted to 31.5 nM and the koff amounted to 500 s⁻¹.
In the case of B11, the Kd worked out at 23 nM, the koff was determined as 0.0105 s⁻¹ and the kon came out at 458000 M⁻¹ s⁻¹.
Regarding B12, the Kd was 24.8 nM, the koff is 0.0116 s⁻¹ and the kon stood at 467000 M⁻¹ s⁻¹.
The corresponding values for B13 are 30.8 nM, 0.0105 s⁻¹ and 340000 M⁻¹ s⁻¹.
The matching figures for B14: 30.9 nM, 0.00663 s⁻¹ and 215000 M⁻¹ s⁻¹.
